We go through 13 molecules from patent publication US20200392228A1 (PANDION OPERATIONS, published 2020).

Experiment [1] concerns the target T1, mouse MAdCAM expressed on cells (mouse, UniProt Q61826 22-405).
T1 construct: whole, on cells
T1 sequence (looked up): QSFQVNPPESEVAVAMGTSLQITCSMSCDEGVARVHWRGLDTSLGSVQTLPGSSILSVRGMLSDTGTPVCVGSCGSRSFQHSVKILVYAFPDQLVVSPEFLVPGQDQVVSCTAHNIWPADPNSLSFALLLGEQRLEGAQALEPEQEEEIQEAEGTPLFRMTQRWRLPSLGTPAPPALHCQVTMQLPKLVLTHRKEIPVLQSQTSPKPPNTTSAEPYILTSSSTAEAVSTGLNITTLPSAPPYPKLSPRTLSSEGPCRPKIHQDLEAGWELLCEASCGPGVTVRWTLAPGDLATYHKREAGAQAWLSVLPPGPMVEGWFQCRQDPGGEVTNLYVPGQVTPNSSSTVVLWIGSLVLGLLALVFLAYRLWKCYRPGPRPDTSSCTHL
The experiment can be described thus: cell binding.

For experiment [2], the target named is T2, human MAdCAM expressed on cells (human, UniProt Q13477 19-382).
T2 construct: whole, on cells; also called MADCAM1
T2 sequence (looked up): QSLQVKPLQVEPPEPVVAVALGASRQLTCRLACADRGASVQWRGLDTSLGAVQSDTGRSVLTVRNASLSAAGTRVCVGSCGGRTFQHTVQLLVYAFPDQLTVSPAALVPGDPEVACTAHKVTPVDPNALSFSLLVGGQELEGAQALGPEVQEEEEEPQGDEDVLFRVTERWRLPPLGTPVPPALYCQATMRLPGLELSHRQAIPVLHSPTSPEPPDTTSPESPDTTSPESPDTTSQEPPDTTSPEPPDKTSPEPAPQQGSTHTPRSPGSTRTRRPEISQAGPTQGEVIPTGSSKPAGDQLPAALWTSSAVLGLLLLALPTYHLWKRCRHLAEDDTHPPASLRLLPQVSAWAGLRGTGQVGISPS
The experiment is described as follows: cell binding.

Another experiment addresses T3, mouse MAdCAM protein (mouse, UniProt Q61826 22-365, limits assumed).
T3 construct: also called recombinant mouse MAdCAM-1; mMAdCAM-1
T3 sequence (looked up): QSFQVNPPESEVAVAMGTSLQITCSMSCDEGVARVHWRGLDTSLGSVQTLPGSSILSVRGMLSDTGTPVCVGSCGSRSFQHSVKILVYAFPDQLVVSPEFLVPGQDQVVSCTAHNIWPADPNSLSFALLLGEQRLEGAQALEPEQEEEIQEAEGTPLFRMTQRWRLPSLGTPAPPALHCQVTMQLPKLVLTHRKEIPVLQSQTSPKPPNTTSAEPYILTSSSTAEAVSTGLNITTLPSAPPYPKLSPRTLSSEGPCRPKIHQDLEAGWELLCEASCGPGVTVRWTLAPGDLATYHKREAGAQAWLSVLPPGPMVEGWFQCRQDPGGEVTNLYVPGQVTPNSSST
The experiment can be described thus: Octet. In general terms: BLI is a label-free optical method that tracks binding on a fibre tip over time.

The target of another experiment is T4, human MAdCAM protein (human, UniProt Q13477 19-317).
T4 construct: used for Octet, SPR, ELISA and plate capture; construct not described; also called recombinant human MAdCAM; soluble monomeric human MAdCAM
T4 sequence (looked up): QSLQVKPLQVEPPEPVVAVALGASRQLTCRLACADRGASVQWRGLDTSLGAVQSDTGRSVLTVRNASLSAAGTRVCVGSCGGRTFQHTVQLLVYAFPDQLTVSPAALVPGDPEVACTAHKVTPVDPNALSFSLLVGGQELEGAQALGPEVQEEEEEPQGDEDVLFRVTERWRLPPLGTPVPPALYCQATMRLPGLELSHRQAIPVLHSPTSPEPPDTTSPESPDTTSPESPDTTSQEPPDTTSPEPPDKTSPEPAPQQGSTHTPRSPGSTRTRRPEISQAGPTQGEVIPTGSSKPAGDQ
The experiment can be described thus: Octet.

B1: MAdCAM antibody Clone ID 75 of Table 7 (IgG) (antibody, V domains shown)
VH: EVQLLESGGGLVQPGGSLRLSCAASGFTFSDFWMHWVRQAPGKGLEWISYISGDSGYTNYADSVKGRFTISRDNSKNTLYLQMNSLRAEDTAVYYCARDRPYYYYMDVWGKGTTVTVSS
VL: DIQMTQSPSSLSASVGDRVTITCRASQSVSRSLAWYQQKPGKAPKLLIYAASSLQSGVPSRFSGSGSGTDFTLTISSLQPEDFATYYCQQYKSYPVTFGQGTKVEIK
notes: IgG format
For the molecule B1, the binding result (in experiment [1]; in experiment [2]; with mouse MAdCAM protein; with human MAdCAM protein) was “binds” each time.

B2: MAdCAM antibody Clone ID 17 of Table 7 (IgG) (antibody, V domains shown)
VH: QVQLVQSGAEVKKPGSSVKVSCKASGYTFTDYHIHWVRQAPGQGLEWMGGIVPRSGSTTYAQKFQGRVTITADESTSTAYMELSSLRSEDTAVYYCAKDESSGWYYFDYWGQGTLVTVSS
VL: DIVMTQSPLSLPVTPGEPASISCRSSQSLLHSNGYNYLDWYLQKPGQSPQLLIYSAYNRASGVPDRFSGSGSGTDFTLKISRVEAEDVGVYYCMQALQTPLTFGQGTKVEIK
notes: IgG format
With B2, the binding result in experiment [1] is “no binding”; in experiment [2], “binds”; in the experiment with mouse MAdCAM protein, “no binding”; in the experiment with human MAdCAM protein, “binds”.

B3: MAdCAM antibody Clone ID 6 of Table 7 (IgG) (antibody, V domains shown)
VH: EVQLLESGGGLVQPGGSLRLSCAASGFTFNNYAFHWVRQAPGKGLEWVSRINSYGTSTTYADSVKGRFTISRDNSKNTLYLQMNSLRAEDTAVYYCAREGPVAGYWYFDLWGQGTLVTVSS
VL: DIQMTQSPSSLSASVGDRVTITCRASQIIGTNLAWYQQKPGKAPKLLIYGASSLQSGVPSRFSGSGSGTDFTLTISSLQPEDFATYYCQQSYRLPFTFGQGTKVEIK
notes: IgG format
Consider B3, for which the binding result is reported as “no binding” in experiment [1], “binds” in experiment [2], “no binding” with mouse MAdCAM protein and “binds” with human MAdCAM protein.

B4: MAdCAM antibody Clone ID 30 of Table 7 (IgG) (antibody, V domains shown)
VH: EVQLLESGGGLVQPGGSLRLSCAASGFTFSSYAMHWVRQAPGKGLEWVSGISGSGGSAYYADSVKGRFTISRDNSKNTLYLQMNSLRAEDTAVYYCATSQAPVDYYYYGMDVWGQGTTVTVSS
VL: DIQMTQSPSSLSASVGDRVTITCRASQSISSWLAWYQQKPGKAPKLLIYAASNLQRGVPSRFSGSGSGTDFTLTISSLQPEDFATYYCQQSYSIPITFGQGTKVEIK
notes: IgG format
As for B4, the binding result (in experiment [1]; in experiment [2]; with human MAdCAM protein) was “binds” each time.

B5: MAdCAM antibody Clone ID 24 of Table 7 (IgG) (antibody, V domains shown)
VH: EVQLVESGGGLVKPGGSLRLSCAASGFTFSSYWMSWVRQAPGKGLEWVSRISSDGRITTYAAPVKGRFTISRDDSKNTLYLQMNSLKTEDTAVYYCARGTSYCTGGVCDIDYWGQGTLVTVSS
VL: DIQMTQSPSSLSASVGDRVTITCRASQSIGRNLNWYQQKPGKAPKLLIYSASNLQSGVPSRFSGSGSGTDFTLTISSLQPEDFATYYCQQSYSIPLTFGPGTKVDIK
notes: IgG format
Turning to B5, the values for the binding result (in experiment [1]; in experiment [2]; in the experiment with mouse MAdCAM protein) were “no binding”, “binds” and “no binding”, respectively.

B6: MAdCAM antibody Clone ID 36 of Table 7 (IgG) (antibody, V domains shown)
VH: EVQLLESGGGLVQPGGSLRLSCAASGFTFDDYALHWVRQAPGKGLEWVSAISGDGRSTTYADSVKGRFTISRDNSKNTLYLQMNSLRAEDTAVYYCARDGTVNGATGWFDPWGQGTLVTVSS
VL: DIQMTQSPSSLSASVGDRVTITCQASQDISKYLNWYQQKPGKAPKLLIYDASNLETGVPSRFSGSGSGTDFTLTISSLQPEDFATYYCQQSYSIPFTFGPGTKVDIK
notes: IgG format
Regarding B6, the binding result (in experiment [1]; in experiment [2]; in the experiment with human MAdCAM protein) was “binds” throughout.

B7: MAdCAM antibody Clone ID 58 of Table 7 (IgG) (antibody, V domains shown)
VH: EVQLLESGGGLVQPGGSLRLSCAASGFSVSSNYMSWVRQAPGKGLEWVAGISYDGSSKPYADSVKGRFTISRDNSKNTLYLQMNSLRAEDTAVYYCARSRGIAARPLQHWGQGTLVTVSS
VL: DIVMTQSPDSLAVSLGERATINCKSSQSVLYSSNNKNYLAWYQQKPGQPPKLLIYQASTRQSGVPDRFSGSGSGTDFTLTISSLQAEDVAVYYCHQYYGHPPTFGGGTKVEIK
notes: IgG format
With B7, the binding result in experiment [1] is “no binding”; in experiment [2], “binds”; in the experiment with human MAdCAM protein, “binds”.

B8: MAdCAM antibody Clone ID 22 of Table 7 (IgG) (antibody, V domains shown)
VH: EVQLLESGGGLVQPGGSLRLSCAASGFTFDDYAMHWVRQAPGKGLEWVSGISWNSGSIGYADSVKGRFTISRDNSKNTLYLQMNSLRAEDTAVYYCAKDIVAAGHYYYGMDVWGQGTTVTVSS
VL: DIQMTQSPSSLSASVGDRVTITCQASQDISNYLNWYQQKPGKAPKLLIYDASNLETGVPSRFSGSGSGTDFTLTISSLQPEDFATYYCQQSYSTPLTFGGGTKVEIK
notes: IgG format
On to B8, for which the binding result is “no binding” in experiment [1], “binds” in experiment [2], “no binding” with mouse MAdCAM protein and “binds” in the experiment with human MAdCAM protein.

B9: MAdCAM antibody Clone ID 23 of Table 7 (IgG) (antibody, V domains shown)
VH: EVQLLESGGGLVQPGGSLRLSCAASGFTFDDYAMHWVRQAPGKGLEWVSYIDTSSSHLYYADSVKGRFTISRDNSKNTLYLQMNSLRAEDTAVYYCARDEAAAGYYGMDVWGQGTTVTVSS
VL: DIQMTQSPSSLSASVGDRVTITCQAGQDISNYLNWYQQKPGKAPKLLIYDASNLETGVPSRFSGSGSGTDFTLTISSLQPEDFATYYCQQTYSTPITFGQGTKLEIK
notes: IgG format
Regarding B9, the binding result in experiment [1] is on record as “no binding”; in experiment [2], “binds”; with mouse MAdCAM protein, “no binding”; in the experiment with human MAdCAM protein it was “binds”.

B10: MAdCAM antibody Clone ID 46 of Table 7 (IgG) (antibody, V domains shown)
VH: EVQLLESGGGLVQPGGSLRLSCAASGFSFSSYTMNWVRQAPGKGLEWVSFITSSSRTIYYADSVKGRFTISRDNSKNTLYLQMNSLRAEDTAVYYCARDRRGDYGDSWYFDLWGRGTLVTVSS
VL: EIVMTQSPATLSVSPGERATLSCRASQSVRNYLAWYQQKPGQAPRLLIYGASTRATGIPARFSGSGSGTEFTLTISSLQSEDFAVYYCQQYGSSPLTFGGGTKVEIK
notes: IgG format
For B10, the binding result in experiment [1] was “no binding”; in experiment [2], “binds”; with mouse MAdCAM protein it was “no binding”; with human MAdCAM protein, “binds”.

B11: MAdCAM antibody Clone ID 20 of Table 7 (IgG) (antibody, V domains shown)
VH: EVQLLESGGGLVQPGGSLRLSCAASGFTFSDSAMHWVRQAPGKGLEWVSAISGSGSTIYYADSVKGRFTISRDNSKNTLYLQMNSLRAEDTAVYYCVSDIAVAGHWYFDLWGRGTLVTVSS
VL: DIQMTQSPSSLSASVGDRVTITCRASQSISTFLNWYQQKPGKAPKLLIYAASRLEGGVPSRFSGSGSGTDFTLTISSLQPEDFATYYCQQANSFPLTFGPGTKVDIK
notes: IgG format
Take B11: the binding result in experiment [1] was “no binding”; in experiment [2], “binds”; in the experiment with mouse MAdCAM protein, “no binding”; with human MAdCAM protein, “binds”.

B12: MAdCAM antibody Clone ID 79 of Table 7 (IgG) (antibody, V domains shown)
VH: EVQLLESGGGLVKPGGSLRLSCAASGFTFDDYAMHWVRQAPGKGLEWVASITSSSAFIDYAASVKGRFTISRDDSKNTLYLQMNSLKTEDTAVYYCARERVDWNSYFDLWGRGTLVTVSS
VL: EIVMTQSPATLSVSPGERATLSCRASQGISNSYLAWYQQKPGQAPRLLIYGASTRATGIPARFSGSGSGTEFTLTISSLQSEDFAVYYCQQYYTYPPTFGPGTKVDIK
notes: IgG format
For B12, the binding result (in experiment [1]; in experiment [2]; in the experiment with mouse MAdCAM protein; with human MAdCAM protein) was “binds” throughout.

B13: MAdCAM antibody Clone ID 78 of Table 7 (IgG) (antibody, V domains shown)
VH: QVQLVQSGAEVKKPGSSVKVSCKASGGTFSSYAISWVRQAPGQGLEWMGWMEPHTGNTRYAQKFQGRVTITADESTSTAYMELSSLRSEDTAVYYCAKGGFSWFDPWGQGTLVTVSS
VL: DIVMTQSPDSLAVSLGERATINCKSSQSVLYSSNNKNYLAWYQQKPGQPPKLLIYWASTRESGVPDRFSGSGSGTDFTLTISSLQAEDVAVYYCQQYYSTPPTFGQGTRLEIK
notes: IgG format
Turning to B13, the binding result (in experiment [1]; in experiment [2]; with human MAdCAM protein) was “binds” in each case.
